We go through 167 variants from the RNAGym collection of RNA variant scans (doi:10.7554/elife.80360).

The labels stand for the following.
B1: HDV Ribozyme (parent)
chain: GGCCGGCAUGGUCCCAGCCUCCUCGCUGGCGCCGGCUGGGCAACAUUCCGAGGGGACCGUCCCCUCGGUAAUGGCGAAUGGGACCCA

The data set covers variants of B1. Nature of the data set: self-cleavage, relative activity (ratio to wild type); higher = more cleavage; co-transcriptional.
Take G39A G40U: the self-cleavage was found to be 0.57.
On to G39A G40C, for which the self-cleavage stood at 0.459.
Next, G39A G40A: 0.786.
Turning to U37C A87C, the self-cleavage was 1.21.
Then U37C A87G, with 1.09; and G39U A56G, with 0.659; and U37G G52C, with 0.178.
In the case of U37G G52A, the self-cleavage is 0.106.
Next, G39A G67A: 0.453; U37G G81U: 0.0489.
Then U37G G81C, with 0; and U37A C61A, with 0.138; and G39C A70G, with 0.151.
Then G39C A70U, with 0.0308.
Regarding G39A C75A, the self-cleavage stood at 0.0755.
Next, G39A C75U: 0.178; G38A C63A: 0.0978.
Next, G38A C63G: 0.0811; G39A G81C: 0.113; G39C C44U: 0.0707.
Take G38U C44U: the self-cleavage amounted to 0.126.
Next, U37G U79A: 0; G39U A51U: 0.611; G39U C49U: 0.649.
For the variant G39U C49A, the self-cleavage was determined as 0.604.
As to G39C G67A, the self-cleavage turned out to be 0.134.
Next, G39C G67C: 0.232.
On to G38U C86A, for which the self-cleavage came out at 0.297.
Next, G39A A51C: 0.389.
Then G38C A51C, with 0.277; and G38C A51U, with 0.181; and U37A A71C, with 0.19.
Next, U37A A71U: 0.394; U37C A83U: 0.534.
As to G38U C75A, the self-cleavage was 0.208.
Regarding G39C G73C, the self-cleavage was 0.151.
For C36U G55A, the self-cleavage stood at 0.612.
Consider G38U G54C, for which the self-cleavage was 0.4.
Then U37G A56C, with 0; and U37G A56U, with 0.0723; and C36U U72G, with 0.431.
Then C36U U72C, with 0.102.
For the variant U37G C75A, the self-cleavage came out at 0.156.
Next, U37G C75U: 0.0594.
Next, U37C G50C: 1.07; U37C G50A: 1.01; G38A G68A: 0.21.
Then G38U G40C, with 0.0923; and U37C A70U, with 0.974; and G38C U47A, with 0.249.
As for G39U A87U, the self-cleavage is 0.683.
As for G38U G76A, the self-cleavage was 0.145.
Next, G38U G76C: 0.228; U37G C49A: 0.0573; U37G C49U: 0.268.
U37G C49G: the self-cleavage amounted to 0.196.
Next, G38A A87U: 0.121; U37A C62U: 0.104.
Then U37A C62A, with 0.212; and U37C U47G, with 0.8; and U37C U47C, with 0.791.
Then G39U C44G, with 0.113.
As for U37C C66U, the self-cleavage turned out to be 1.01.
Consider U37C C63U, for which the self-cleavage was 1.11.
As for C36U U46A, the self-cleavage came out at 0.462.
Next, G38A G50C: 0.0831.
For U37C G76C, the self-cleavage came to 1.19.
Then U37A C44G, with 0.0898.
For the variant G38A U60A, the self-cleavage was 0.117.
As to G38A A51G, the self-cleavage amounted to 0.141.
Then U37A A42U, with 0.131; and U37A A42C, with 0.246.
Next, G38C G59C: 0.266; U37A A51G: 0.302; U37G G40U: 0.203.
With G38C G54U, the self-cleavage amounted to 0.185.
Next, U37A G39A: 0; U37A G39U: 0.122; G39A G50U: 0.441.
Then U37C G39U, with 0.564; and G39A U46G, with 0.0923; and G39A U46C, with 0.181.
For G38A C61A, the self-cleavage is 0.105.
Then C36U G39U, with 0.245; and C36U G39A, with 0.
Then U37A G82A, with 0.138; and G39C G68C, with 0.339; and G38C C63A, with 0.332.
Next, G38C C63G: 0.287; G38A C64G: 0.142; G39U C58A: 0.665.
In the case of G38U C58U, the self-cleavage amounted to 0.295.
For the variant U37C G59A, the self-cleavage is 1.1.
As for G38A G73U, the self-cleavage was determined as 0.0978.
Next, G38A G73C: 0.13; U37C G55C: 1.1.
Turning to G39A A70C, the self-cleavage is 0.277.
For G38A U72C, the self-cleavage is 0.108.
Next, G38U G55C: 0.19; G38U G55U: 0.21.
On to G39C G53A, for which the self-cleavage was found to be 0.308.
Then G39U C63A, with 0.598; and G38U A43C, with 0.0811; and C36U G59A, with 0.704.
Then U37C G53A, with 1.04.
Regarding U37C G53C, the self-cleavage was 1.2.
G38U A51U: the self-cleavage was 0.308.
G38A U46A: the self-cleavage is 0.
As to G38A U46G, the self-cleavage amounted to 0.111.
Next, G38U A83G: 0.0866; U37G C44U: 0.119.
Then U37A A78C, with 0.0997.
Then U37A A78U, with 0.0369.
As to U37C G40A, the self-cleavage stood at 0.95.
On to C36U G53A, for which the self-cleavage turned out to be 0.641.
Next, G38C C41G: 0.406; G38C A83G: 0.201; G38C A83C: 0.107.
Turning to G38C A83U, the self-cleavage is 0.0361.
For G39A C49G, the self-cleavage worked out at 0.366.
For the variant G38A G81A, the self-cleavage is 0.227.
Take G38C A78C: the self-cleavage was determined as 0.
For U37C A43G, the self-cleavage came to 0.332.
G38C C64A: the self-cleavage turned out to be 0.228.
Then G39C G76A, with 0.289; and U37A U65G, with 0.244.
For the variant G39C G81A, the self-cleavage is 0.185.
Then U37A U72A, with 0.125; and G38U G82A, with 0.0886.
On to U37C U60G, for which the self-cleavage came out at 0.906.
Then G38C U69C, with 0.18; and U37C G52C, with 0.856.
G38A C41G: the self-cleavage was determined as 0.291.
Take G38U G81A: the self-cleavage was found to be 0.128.
Next, G38U G81C: 0.0678.
As for U37A G38C, the self-cleavage worked out at 0.0923.
In the case of G38C C49A, the self-cleavage came out at 0.237.
Consider G39A C66U, for which the self-cleavage turned out to be 0.472.
Next, U37C U46A: 0.458; G39C C62G: 0.0573; U37G C48U: 0.
Next, G39C C84U: 0.196; U37A C41U: 0.403.
For the variant U37G C64A, the self-cleavage was 0.122.
Then U37G C64G, with 0.0437.
Then U37A C66A, with 0.29; and U37A C66U, with 0.314; and G38A C86G, with 0.107.
Next, G38A A71C: 0.032.
Take G38A A71G: the self-cleavage is 0.177.
Next, G38U G67U: 0.166; G38U G67A: 0.237.
With G39A U72C, the self-cleavage amounted to 0.135.
For G38U A78U, the self-cleavage is 0.0911.
Next, G38U A78C: 0.086; G39C U79A: 0; G38A G82A: 0.0482.
As to G38A G82C, the self-cleavage stood at 0.262.
Then G39U A83G, with 0.444.
Then G38U A71U, with 0.222; and G38U A71G, with 0.166.
Then U37C C44U, with 0.529; and C36U U79C, with 0.201; and C36U U79A, with 0.253.
U37A C84G: the self-cleavage worked out at 0.151.
In the case of U37G U65G, the self-cleavage turned out to be 0.0573.
For C36U G54A, the self-cleavage amounted to 0.494.
